Measured values taken from a protein production outcome set (Wang et al. 2014).

Assay: label from the status in PepcDB records

In the case of “MAKAQTVTILSPVNGDVIALNKVKDPVFSAGMMGLGFGVQPSSGEVVAPVSGQVTMVAETKHAIGFTTPDDHLEVLVHLGIDTVDLKGAPFTVKVAAGDDVQAGDVIATMDLAAIQAANRQTTVILAVTNTSDKLESLDVVTGAKAAGDVTATGRLNANTFNAKRQNRLPKAGKYDQLAADIVANVGGVENVSSLIHCITRLRFYLKDESKANDDVVRDLKGVIDVAKAGGQYQVVIGPAVTDVYDAIIKQIGPGFSNDSETAKAVAETAAAAQRPTTPWGKVKWGISNLIGVITGSMIPVIGLLAASGILKGILALLTTFNLVSPTAPTYVIINAMGDSVFYFLPIFVGFTAGKKLGADPVIMGIIGGVLTYPAIVTMASGKATSTLLGMGINANFFGLPVHVASYTYSIFPMIAGAWLASKLEPWLKRVIPTVLRMIFVPLFEVVIVSGAILLFLGPIITVLSTGLANIIVWVYNLSPAISGLIIGGFYQVLVIFGLHWAVIPIVANDIATTGHSYLNAIVSATMVAQGGAVFAIALKSKLANIQELAWPATISAFCGVTEPAMYGINLKYGRAFVTASIGAAVGGFLTGLMNVNMWGFTGSLIGFTSFVNPKGLDFSFYGFLIASAATIVVSFALTWMFGFKDEDANAVKVAPKKRHLGATA”, the protein production is reported as “failed”.

With “MDTFDINTEINEDEINVEKIMEKIRENIRKQKGAGIFPEKIHGDLQQGSLLEVTPGESNIQRDLDYINSNWDIQNNSYFISSHRPFVGKFLVRGRDLVHGEIRRYVDPVFWKQTEFNGSTVRLLNDTAGKFIYYNNKIEQLQSEMDSKIEQLQSEMDSKIEHLRPELGNKIERLRSEFENQIEQLKSEIDDSIKAEVNSIISLMNLDIENKAWLASVLDGKIEKGYKNKKTGTPDPGDLDINYFRFEEQFRGSREDIKQRQSCFMNYFLGCSNVLDIGCGRGEFLELASEHGIGAKGVDIDDTMVDFCLSKGLNVVKQEAISYLESVDDKSLDGIFIDQVVEHLEPDYLIKLLKLCFQKLKYGYYIFAETVNPLSFVSFANFYIDMTHKKPIHPETLKFLLTSAGFRDVDTMFFSPVSEKARLQKVPINNDMEEWVKNYLDIYNHNLEKLNGILYGAQDYAVIGKK” the protein production was “failed”.

For “MSGLLSIFDLSDERGVLRTSIAVTFVISFLGIGFGLFSGSFSIVFDGVYSLIDAGMSLLSLIVVNLITSYAVADHLSRKLRERFSFGLWHLEPMVLGLNGILLISAALYALVTAIGSLLSGGRDLEFGSALIYAAVTVIACAGIAAVEWRANRKIGSEFLRLDVRGWIMSAGISAALLIAFMIGLAVQGTSWQWISPYIDPAVLAAVCVLIIPLPVSTVRQALADIFLVTPVDLKKHLDTVAAAFVAKHGFVSYRAYVARVGRSKEIELYFIVPADAPARTIGEWDMLRDEIGDLVGDDGPNRWLTVVFTGDPEWAE”, the protein production was “failed”.

With “MPERVKRKRYALVGTGNRGTTMWGRELLAGWSDYVELVGICDLNLMRAERARAMMGSNAPLYDDFDRMMVEQRPELVIVCTPDDTHDDIIIRALEGGADVISEKPMTTTPEKIDRIRAAEAKSGRRVDVSFNYRFSPTAARIKELIDDGAIGTVTSVDFHWYLDNQHGADYFRRWHAFTEHSGSLFVHKATHHFDLLNWYLDSDPVEVKGFGQLLHYGKNGPFRGTRCRTCPHKDECDYFMDLGADPFLDALYEDPSSIDGYMRDACVFREEIDIPDTMSASIRYASGVQVSYSLNTYMPIEGHHIAFNGHKGRIEMRQYEKQPWAEPPADEILVVKSFGGGVERIWVPHEPGGHYGGDNRMRDMIFKPGSNDRLRQRAGSRAGAMSVLCGVAALKSARDGGSQPIKSLPL” the protein production was “failed”.

With “MSLDFRSADFLRTHISDTMAFYHPRCIDSAGGFFHYFRDDGSIYNATHRHLVSSTRFVFNYAMAYLQFGTAEYLDAVHHGLSYVRDVHRNPATGGYAWTLCDDRVEDDTNHCYGLAFVMLAYSCGLKVGIKQAREWMDETWCLLERHFWDAEYGLYKDEADAQWNFTRYRGQNANMHMCEAMLAAYEASGEQRYLERALVLADRITRRQAAKADGLVWEHYDMRWEVDWDYNRDNPKHLFRPWGFQPGHQTEWAKLLLILDRYIEVEWLVPVARSLFDVAVARSWDAVRGGLCYGFAPDGTICDDDKYFWVQAESLAAAALLATRSGDERYWQWYDRLWAYAWQHMVDHRYGAWYRLLDGDNRKYNDEKSPAGKTDYHTMGACHEVLNVVWTKSEGHHHHHH” the protein production was “not failed”.

In the case of “MTFPVIGVVGGGQLARMMAPPATALGFELRVLAEGEDVSAVAAVATAPIGDYKDLDALLEFSKGLDVMTFDHEHVPTQHLQALLDAGVNVQPGPDALVNAQDKLVMRAAIDRLGLPNPEWSAVNTVDELVAFGERIGWPVVLKTPRGGYDGKGVRMVDSADDALETADWFQAMSPLLAEAKVEFSRELSALVARSPSGESRAWPVVHTIQVDGVCDEVIAPAQNISVEVAAAAEEAALRIANELGVTGVMAAELFETPGVGVGFLINELAMRPHNTGHWTQDGSITSQFEQHLRAVLDLPLGATDALAPVVVMKNFLGGDNQDLFKAFPMALAFEPAAKVHSYGKSVRPGRKIGHVNLVGSSVSDVDSVRQRATAVANIIRDGRKPEQTTLEETA”, the protein production is reported as “failed”.

For “MGCRATQRESVGFADKIRYTERRFISVFGVPLLIQLICQAPQRAQELEQIAARWQLQASDDSPFALVLSEERLELRKLDEPKLGAIYVDWVEGAVAHRRKFGGGKGQSIAKAAGLNKGVTPVVLDATAGLGRDAFVLASLGCRVQMVERHPVVAALLEDGLQRAKQDDEIGAWVSERISLLHASSHDALQQLASDPNFTSPDVVYLDPMYPHPENKKKTALVKKEMRVFQSLVGADNDADALLEPALQLAQKRVVVKRPDYAPWLGNRKPSMAMETKKNRFDVYVIAAMSGE”, the protein production was “failed”.

In the case of “MMRRQRDEQQSRVFYDLSSLVLNLLRSPPMPISLPDHFPDPPARIRPPFSSHRFSSSSPSLAHISPSGFASLLLGISVALMLCGSVTFFIGFLLMPWVLALILVFYVAGIVSAISMVGRSILCYVLTPPSPSGKEISEWKLL”, the protein production is reported as “failed”.

In the case of “TLLLIFSFFVVTIGGLVQIVPLFYLENTIEKVEGVRPYTPLELAGRDIYIREGCYVCHSQMIRPMRDETERYGHYSLAAESMYDHPFQWGSKRTGPDLARVGERYSDEWHVDHLTNPQSVVPESIMPKYGFLSHTVIDGRYIRDLMSVHRIVGVPYSDEMLENAVADFKAQANPDADTDGLLERYGKAAVRNFDGQAELTEMDALISYLQVLGT”, the protein production is reported as “failed”.

For “MQELLFIRLNELILLIYLFSIACYFFDFIKRFYKIRNIGFVTLGIVWVLQTISLSFYVTATNQVPLGNVFDVLFALAWLIISISIVISVIKQVNISIFLFNIIGFVFIAISTFQPMHYQGAGEKLNVINELLIVHVTFAIISYAIFAFAFVNSILYLIQFKNLKQKRFTQKYFRISSVATLEKVVFYNSLVGFLFIILSIILGAQWGINTIGMDIFVDPKVIMSVIITILYGLYLLLRVRQSISKHKLIYINIILFCLNMINLLFTSHVSDFHQWTGI”, the protein production was “failed”.

In the case of “SLENERLIKMSRFSERGYVVRENGPVYFTKDMDKTVKWFEEILGWSGDIVARDDEGFGDYGCVFDYPSEVAVAHLTPFRGFHLFKGEPIKGVAGFMMIEGIDALHKYVKENGWDQISDIYTQPWGARECSITTTDGCILRFFESIQEG”, the protein production is reported as “not failed”.

In the case of “MMLLQQFKKIITVLIQVLVIMGITYLGNVIQRYMHIPIAGSIVGLLLFFLLLQFKVIPAKWVNEGSNFFLTTMVFFFVPSVVGIMDVVPMINLNFILFFSMILLGTCCVALISGFIAEKMVKNKQDGNGVN”, the protein production is reported as “failed”.

In the case of “MRVAVITDSHGNAYALEATLREVHAAAPDLIVNLGDQIEGCADPARAAALQADLGALEVRGNNEEKLWPDGRRTPLAQEVGAWLAAQVSPADRERLAALPLTARVEGLFACHGTPESAWDSLLWVWDAAGGFYRSRDPRELRRMVEPLGAEVVVCGHTHRAGATRVGDTLVVNCGAISDQVDGDPRARWTLLERRGGGWNVEFHNVAYDIAGAVAWARAHSPFGDFEAHLLESGEMTGRGTGGI”, the protein production is reported as “failed”.

For “MAGEKAQKKGKEKWKEKTWYTVESPPYLGSKEVTVALGEDPESMVNRIVEVPISDLTGNFKKSNEKALFRITGCEGTKCKTIFIGHYIGDDYIRRLVRRRKERIDIIEDVKTSDGSIITVKIVVVSDGKLTNTKKSEIRKALTSFIVSKGSQLSYADFVRYLIGDDSYNDMVEATKNIYPLRKIEIRKSELVSLSGMQEPQKNEPAPGGEAIAQNLEHHHHHH”, the protein production was “not failed”.

In the case of “RALRRRGGDAAAKLAGLVLIAPAPDFTEALMWKGFSPEIRAEIETKGVWHRPSEYGEPYPITKALIEDGRNHLVLDGMIEVGCPVRILQGKQDEDVPWRHAFELAERLPTDDVVLTMIQDGDHRLSRPQDIARMLAAVEE”, the protein production is reported as “failed”.

With “MAKKTKAKAAKAARPKAAKTAVAKAKPAKRGVAARSVAAKPPKVAPGELVTLLDFVRYAVSRFAEAGVVFAHGTTDPIAEAVFLVGEALHLHPDQFEMFASARVTTREAAAILGLIERRIGSRLPAAYLVNKIYMRGVPFYVDERVIVPRSYIGELLDSHFDGGDTSLIDAPEAIERVLDLCTGSGCLAILAAYAFPNATVDAVDLSKDALAVATRNVAEHRLDDRVSLYHGDLFGPLGDERYDLIITNPPYVDADGMASLPAECRAEPAMAFDGGDDGLTIIRRILAEAKHHLNPDGGLLCEVGRCRPQIEDEFPQLPLLWLDSEDSEAEVFWIAAADL” the protein production was “failed”.

In the case of “MDKASRFDRMVKEKKNDELGLFEKYEETLAEIRKRIIKYKAKTVVDMGCGTGNLCGELSKEIEALGIDKSLEMLEGAKRKYKHIKFKIGSFSDKPFIGKWAGVVVTTYAFHGLNSEEKKEAIKNMIGYLKDDGRIIIGDYMFKNKAEKEECRNKLLSKKRQDLWEVIDGRYYTDLEELKDYVKSLGFKIISEHIVNFTWIVEIYK”, the protein production is reported as “failed”.

In the case of “MAEHGETTEDGDSEIDYEFLAELSALLGVDAVQLAKSQEEEEHKERMKMKKGFNSQMRSEAKRLKTFETYDTFRSWTPQEMAAAGFYHTGVRLGVQCFCCSLILFGNSLRKLPIERHKKLRPECEFLLGKDVGNIGKYDIRVKRPEKMLRGGKARYHEEEARLESFEDWPFYAHGTSPRVLSAAGFVFTGKRDTVQCFSCGGSLGNWEEGDDPWKEHAKWFPKCEFLQSKISSEEIAQYIQGYGGFVHVTGEHFVNSWVRRELPMVSGRKDIVQCFSCGGCMENWAEGDDPIQEHNKFFPK”, the protein production is reported as “failed”.

In the case of “MTYMNNEVTTKASKQRLEVHKPRPIFFETLTITQIQIFMQSYSRLMQFKVKDLMIDKRRLVEVPDNATLGDALNTMTILGIKPVANRVRAVPVAAKPGQWLGAGGSMIVELDKQSGSARKQYIGMVTMLDVVAHIAGDDGESGLDKKMAAPVSSIIGHCPEGLSLWSLNPNTSIMDCMEMLSKGIHRVLVPLDSNTENITGPELVESASAYAMLSQMDLISFFFDQSSQLHGILSHTVTDLSAIHNTVLALTSQARVKDAIQCMSIAMLNAVPIVEASGEGEDHKQLVDGKNRRVVGTFSASDLKGCHLATLRSWLPLNALEFVEKIPRTLLFTAATSTPGRELVTCHVTSTLAQVIHMVTTKRVHRVWVVDQNGGLQGLVSLTDIIAVVRSALLSGAPDLF”, the protein production is reported as “failed”.

In the case of “MAKEIKFSDSARNLLFEGVRQLHDAVKVTMGPRGRNVLIQKSYGAPSITKDGVSVAKEIELSCPVANMGAQLVKEVASKTADAAGDGTTTATVLAYSIFKEGLRNITAGANPIEVKRGMDKAAEAIINELKKASKKVGGKEEITQVATISANSDHNIGKLIADAMEKVGKDGVITVEEAKGIEDELDVVEGMQFDRGYLSPYFVTNAEKMTAQLDNAYILLTDKKISSMKDILPLLEKTMKEGKPLLIIAEDIEGEALTTLVVNKLRGVLNIAAVKAPGFGDRRKEMLKDIAILTGGQVISEELGLSLENAEVEFLGKAGRIVIDKDNTTIVDGKGHSHDVKDRVAQIKTQIASTTSDYDKEKLQERLAKLSGGVAVIKVGAASEVEMKEKKDRVDDALSATKAAVEEGIVIGGGAALIRAAQKVHLNLHDDEKVGYEIIMRAIKAPLAQIAINAGYDGGVVVNEVEKHEGHFGFNASNGKYVDMFKEGIIDPLKVERIALQNAVSVSSLLLTTEATVHEIKEEKAAPAMPDMGGMGGMGGMGGMM”, the protein production is reported as “failed”.
